Molecular target: FcγRIIIa (V158 variant)

| Substance | ADCC Reporter Bioassay (WIL2-S target cells, Jurkat/NFAT-luc + FcγRIIIa V158 effector cells), EC50 of luciferase induction |
| --- | --- |
| Riabni (rituximab-arrx), lot 1141263, untreated (antibody) | 13.6 ng/mL |
| Rituxan (rituximab), lot 3575428, untreated (antibody) | 9.3 ng/mL |
| Ruxience (rituximab-pvvr), lot GN4445, untreated (antibody) | 6.06 ng/mL |
| Truxima (rituximab-abbs), lot 1B1011, untreated (antibody) | 9.09 ng/mL |
